Here are results for 38 molecules from paper PMC314469, “Protein Interaction Networks by Proteome Peptide Scanning” (PLoS Biology, 2004).

T1: amphyphisin SH3 (AMPH_HUMAN), P49418
T1 chain: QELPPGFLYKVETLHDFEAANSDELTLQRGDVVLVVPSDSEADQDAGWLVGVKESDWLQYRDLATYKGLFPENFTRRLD

B1: O15209 277-290 (peptide)
chain: PGAGLRRPTYTPPS
B2: Q9H6E1 62-75 (peptide)
chain: PHHELRRPVLQRQT
B3: O75048 874-887 (peptide)
chain: PFHSLKRPRPPFAR
B4: Q8WXD9 428-442 (peptide)
chain: PGDSPAKPPEGSAG
B5: Q9BW18 356-370 (peptide)
chain: PGPFPPRPPGPLGP
B6: Q13577 1110-1123 (peptide)
chain: PGEHPGRPGRGGSV
B7: Q9GZW5 233-246 (peptide)
chain: PGTGPWRPGRQRGA
B8: Q9NQV6 314-328 (peptide)
chain: PGRRPGRPPKFIRL
B9: Q16538 521-534 (peptide)
chain: PGHSPRRPRPLGLS
B10: Q96D64 48-61 (peptide)
chain: PGTSPRRPSVVPSR
B11: Q9HCH0 869-883 (peptide)
chain: PGVPPARPPPLTKV
B12: Q9NQE0 211-224 (peptide)
chain: ARRPPPRPHRRAET
B13: P78365 80-93 (peptide)
chain: PGQGLRRPARPGPA
B14: Q9P2I2 89-102 (peptide)
chain: PGNIPQRPDRLPMS
B15: Q12984 75-88 (peptide)
chain: PGQGPQRPRRPAKD
B16: Q14184 97-111 (peptide)
chain: PGPSPARPPAKPPE
B17: Q96Q04 1263-1277 (peptide)
chain: PGPGPRRPPWEGAD
B18: P58401 8-21 (peptide)
chain: PGGSPRRPPALAGP
B19: O15427 206-219 (peptide)
chain: PGSGPPRPSRRLLD
B20: Q06587 167-180 (peptide)
chain: PGPAPKRPRGGGAG
B21: O94825 179-192 (peptide)
chain: ARRPLARPIKPNEI
B22: Q8TEP0 205-219 (peptide)
chain: PGSLPSKPPPGPVP
B23: O00156 318-331 (peptide)
chain: PFRALKRPLQFLGL
B24: O43188 617-630 (peptide)
chain: ARSYLRRPAVVYIG
B25: Q96FN8 185-198 (peptide)
chain: PHKRPRRPHQIADL
B26: P51511 339-353 (peptide)
chain: PGGKPERPPKPGPP
B27: O94844 155-168 (peptide)
chain: ARRPLARPIKRGDI
B28: Q96BF6 185-198 (peptide)
chain: PGLAPKRPLETGPR
B29: Q9UN16 222-235 (peptide)
chain: PGVEPKRPSRPINL
B30: Q99640 37-50 (peptide)
chain: PGFSLKRPRGLSRS
B31: Q9H6A9 285-298 (peptide)
chain: PGRAPRRPLLEGGG
B32: Q9NUE2 170-183 (peptide)
chain: PFGQLKRPRRNGLG
B33: Q9Y5X7 158-171 (peptide)
chain: PHADPGRPERLVFK
B34: Q9NTN9 19-32 (peptide)
chain: PGPSLRRPSRELDA
B35: Q9Y2W2 459-473 (peptide)
chain: PGPPPGRPPGPPPG
B36: O75048 890-903 (peptide)
chain: PFFAPKRPFFPPRY
B37: O75833 33-46 (peptide)
chain: PGTPPRRPASPSAL
B38: Q9H3S7 1093-1107 (peptide)
chain: PGPVPPRPPAAEPP

The first experiment deals with endophilin SH3 (SH3G2_HUMAN), Q99962. The experiment is described as follows: SPOT array.
For the molecule B1, the normalised SPOT signal, Boehringer light units (BLU); mean over the file's lines of this peptide is 171.
Still for that read-out and setting: for B2 the value was 4.1.
Turning to B3, the normalised SPOT signal, Boehringer light units (BLU); mean over the file's lines of this peptide was determined as 228.
B4: the normalised SPOT signal, Boehringer light units (BLU); mean over the file's lines of this peptide amounted to 72.5.
Same read-out and setting: for B5 the value was 1930.
The same measure, in the same setting: with B6 the figure was 31.7; with B7, 156.
Molecule B8 had a normalised SPOT signal, Boehringer light units (BLU); mean over the file's lines of this peptide of 15700.
As for B9, the normalised SPOT signal, Boehringer light units (BLU); mean over the file's lines of this peptide was found to be 2830.
The same measure, in the same setting: for B10 the value was 587; for B11, 10000; for B12, 2500.
Consider B13, for which the normalised SPOT signal, Boehringer light units (BLU); mean over the file's lines of this peptide was found to be 1310.
Still for that read-out and setting: for B14 the value was 360.
On the same count and under the same terms, with B15 the figure was 5880; with B16, 194.
Same read-out and setting: for B17 the value was 523; for B18, 241; for B19, 2310.
In turn, B20 had a normalised SPOT signal, Boehringer light units (BLU); mean over the file's lines of this peptide of 348.
Same read-out and setting: for B21 the value was 136.
B22 returned a normalised SPOT signal, Boehringer light units (BLU); mean over the file's lines of this peptide of 22.8.
Same read-out and setting: for B23 the value was 63.7; for B24, 60.1.
Same read-out and setting: with B25 the figure was 58.2; with B26, 4460; with B27, 265.
On the same count and under the same terms, for B28 the value was 1350.
With B29, the normalised SPOT signal, Boehringer light units (BLU); mean over the file's lines of this peptide was determined as 227.
Still for that read-out and setting: for B30 the value was 41.8.
Still for that read-out and setting: for B31 the value was 711; for B32, 67.8.
On the same count and under the same terms, for B33 the value was 8.4; for B34, 226; for B35, 924.
Take B36: the normalised SPOT signal, Boehringer light units (BLU); mean over the file's lines of this peptide was determined as 3080.
On the same count and under the same terms, for B37 the value was 3750; for B38, 331.

The target of a further experiment is T1, amphyphisin SH3 (AMPH_HUMAN), P49418. The experiment is described as follows: SPOT array.
B1 returned a normalised SPOT signal, Boehringer light units (BLU); mean over the file's lines of this peptide of 31.8.
Still for that read-out and setting: with B2 the figure was 30.1; with B3, 65.6; with B4, 52.2.
On the same count and under the same terms, for B5 the value was 68.3; for B6, 414.
The same measure, in the same setting: for B7 the value was 656; for B8, 504.
The molecule B9 returned a normalised SPOT signal, Boehringer light units (BLU); mean over the file's lines of this peptide of 45.1.
Still for that read-out and setting: with B10 the figure was 35.3.
Same read-out and setting: for B11 the value was 807.
The same measure, in the same setting: with B12 the figure was 2030; with B13, 853; with B14, 2130.
Turning to B15, the normalised SPOT signal, Boehringer light units (BLU); mean over the file's lines of this peptide is 4690.
The same measure, in the same setting: with B16 the figure was 19.1; with B17, 25.
Same read-out and setting: for B18 the value was 46.4; for B19, 748.
Still for that read-out and setting: for B20 the value was 38.5.
In turn, B21 came in with a normalised SPOT signal, Boehringer light units (BLU); mean over the file's lines of this peptide of 92.1.
The same measure, in the same setting: with B22 the figure was 48.3; with B23, 28.1; with B24, 35.3.
As to B25, the normalised SPOT signal, Boehringer light units (BLU); mean over the file's lines of this peptide is 75.3.
The same measure, in the same setting: for B26 the value was 570; for B27, 227; for B28, 31.4.
The same measure, in the same setting: for B29 the value was 8660.
B30 displayed a normalised SPOT signal, Boehringer light units (BLU); mean over the file's lines of this peptide of 40.1.
Still for that read-out and setting: for B31 the value was 44.4; for B32, 510; for B33, 169.
Still for that read-out and setting: with B34 the figure was 442.
Still for that read-out and setting: with B35 the figure was 33.4; with B36, 215.
On to B37, for which the normalised SPOT signal, Boehringer light units (BLU); mean over the file's lines of this peptide is 223.
Still for that read-out and setting: for B38 the value was 50.3.
